This note sets out measurements from publication doi:10.1101/2024.02.06.579105.

Assay in all cases: SEC
In assay [1] the target is MalE-DmxA^E626A (M. xanthus).
The target in assay [2] is MalE-DmxA^GAF×2 (M. xanthus).
Assay [3] has as its target MalE-DmxA^R615A (M. xanthus).
For assay [4], the target named is MalE-DmxA^WT (M. xanthus).

In turn, MalE-DmxA^E626A (domain or fragment) had a stoichiometry N in assay [1] of 2.

On to MalE-DmxA^GAF×2 (domain or fragment), for which the stoichiometry N in assay [2] was determined as 2.

Substance MalE-DmxA^R615A (domain or fragment) registered a stoichiometry N in assay [3] of 2. On to MalE-DmxA^WT (domain or fragment), for which the stoichiometry N in assay [4] worked out at 2.

One may read the stoichiometry N as a count of units in the complex or per binding partner.
